Reference: paper doi:10.1101/2022.01.11.475809, “HP1β Chromo Shadow Domain facilitates H2A ubiquitination for BRCA1 recruitment at DNA double-strand breaks” (bioRxiv, 2022)

Biological target: T1, FL-RING1A (1–406aa), recombinant (human, UniProt Q06587 1-406)
T1 construct: Human RING1A, full length, residues 1-406; Subcloned into the bacterial expression 1GFP vector (Addgene #29663, the vector's id); purification as in Hambarde et al., 2021 with other buffers; also called RING1A-FL; Human FL-RING1A; source: bacterial expression vector, purified (HisTrap, TEV cleavage, Superdex 75)
T1 sequence (looked up): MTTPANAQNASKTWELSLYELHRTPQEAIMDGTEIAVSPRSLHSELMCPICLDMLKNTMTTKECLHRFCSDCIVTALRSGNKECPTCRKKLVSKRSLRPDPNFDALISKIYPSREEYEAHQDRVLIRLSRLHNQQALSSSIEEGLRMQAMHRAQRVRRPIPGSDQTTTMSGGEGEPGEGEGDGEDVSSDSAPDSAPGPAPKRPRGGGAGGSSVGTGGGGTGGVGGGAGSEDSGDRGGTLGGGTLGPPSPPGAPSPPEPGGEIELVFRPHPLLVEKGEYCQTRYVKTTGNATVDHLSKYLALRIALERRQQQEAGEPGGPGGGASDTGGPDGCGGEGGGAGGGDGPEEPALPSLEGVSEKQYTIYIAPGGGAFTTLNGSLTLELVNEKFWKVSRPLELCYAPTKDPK
Experiment: pull-down; FL-RING1A incubated with His6-CSD HP1β at molar ratio 1:2 in buffer H (20 mM Tris pH 8, 70 mM NaCl, 5% glycerol, 5 mM BME, 100 µM ZnCl2) on ice for 20 min; Ni-NTA resin, elution with 300 mM imidazole; SDS-PAGE and western blot
Conditions: both partners purified

binding result: binds
B1: His6-CSD HP1β (80–185aa), recombinant (domain or fragment)
chain: not shown
notes: HP1β residues 80-185 (hinge part and chromo shadow domain); 'Human' is printed before the two constructs of the sentence; Subcloned into the bacterial expression 1B vector (Addgene #29653, the vector's id); source: bacterial expression vector, purified (HisTrap, Superdex 75)
